This note sets out measurements from publication PMC314469, “Protein Interaction Networks by Proteome Peptide Scanning” (PLoS Biology, 2004).

Test in all cases: SPOT array
Assay [1] has as its target T1, Boi1 SH3 (BOI1_YEAST), P38041.
T1 chain: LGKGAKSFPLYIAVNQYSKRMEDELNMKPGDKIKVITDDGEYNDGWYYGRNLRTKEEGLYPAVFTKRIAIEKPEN

For assay [2], the target named is T2, Rvs167 SH3 (RV167_YEAST), P39743.
T2 chain: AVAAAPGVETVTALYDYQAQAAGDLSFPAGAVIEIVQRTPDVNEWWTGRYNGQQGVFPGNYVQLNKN

Assay [3] concerns the target T3, Myo5 SH3 (MYO5_YEAST), Q04439.
T3 chain: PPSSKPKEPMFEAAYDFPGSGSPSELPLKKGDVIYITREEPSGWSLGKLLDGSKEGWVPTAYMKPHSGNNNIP

Assay [4] concerns the target Sho1 SH3 (SHO1_YEAST), P40073.
The target of assay [5] is T4, Boi2 SH3 (BOI2_YEAST), P39969.
T4 chain: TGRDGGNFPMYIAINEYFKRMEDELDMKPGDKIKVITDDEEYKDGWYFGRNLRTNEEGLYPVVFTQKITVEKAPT

Assay [6] concerns the target T5, Yfr024 SH3 (LSB3_YEAST), P43603.
T5 chain: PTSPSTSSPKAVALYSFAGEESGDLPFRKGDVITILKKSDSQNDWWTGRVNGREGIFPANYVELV

Assay [7] addresses T6, Yhr016c SH3 (YSC84_YEAST), P32793.
T6 chain: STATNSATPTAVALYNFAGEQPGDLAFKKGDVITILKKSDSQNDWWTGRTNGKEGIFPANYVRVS

Sequence of Sho1 SH3 (SHO1_YEAST), P40073 (P40073 295-366): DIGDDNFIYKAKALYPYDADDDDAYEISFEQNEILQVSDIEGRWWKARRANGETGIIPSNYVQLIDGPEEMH

As to TDTTKVTPIVPVPI [YHR188C 382-395], the normalised SPOT signal, Boehringer light units (BLU); mean over the file's lines of this peptide in assay [1] is 27.1; in assay [2], 24.6; in assay [3], 48; in assay [4] it was 30.2; in assay [5], -0; in assay [6] it was 11.7. The normalised SPOT signal, Boehringer light units (BLU); mean over the file's lines of this peptide in assay [7] came out at 6.5.
In the case of TILERLTPLVPNNL [YKL017C 267-280], the normalised SPOT signal, Boehringer light units (BLU); mean over the file's lines of this peptide in assay [1] is 51.5; in assay [2] it was 198; in assay [3], 249; in assay [4] it was 39.5; in assay [5], -0; in assay [6], 202. For the same molecule, the normalised SPOT signal, Boehringer light units (BLU); mean over the file's lines of this peptide in assay [7] is 32.2.
With TGGGRIVPGVPPGA [YGR054W 516-529], the normalised SPOT signal, Boehringer light units (BLU); mean over the file's lines of this peptide in assay [1] worked out at 79.3; in assay [2], 313; in assay [3] it was 118; in assay [4], 72.9; in assay [5] it was 21.9; in assay [6], 132. The normalised SPOT signal, Boehringer light units (BLU); mean over the file's lines of this peptide in assay [7] came to 50.4.
As to TGYPRYFPQPPVQR [YLL058W 44-57], the normalised SPOT signal, Boehringer light units (BLU); mean over the file's lines of this peptide in assay [1] came out at 3760; in assay [2], 261; in assay [3] it was 5860; in assay [4], 44.3; in assay [5], 34.1; in assay [6] it was 415. In addition, the normalised SPOT signal, Boehringer light units (BLU); mean over the file's lines of this peptide in assay [7] is 36.7.
With TGKPRKTPRPPFPF [YLR422W 149-162], the normalised SPOT signal, Boehringer light units (BLU); mean over the file's lines of this peptide in assay [1] stood at 1420; in assay [2], 3630; in assay [3], 1190; in assay [4] it was 121; in assay [5], 27.8; in assay [6], 6310. The normalised SPOT signal, Boehringer light units (BLU); mean over the file's lines of this peptide in assay [7] was 1160.
As for TELLKTLPFYPTPS [YGR110W 91-104], the normalised SPOT signal, Boehringer light units (BLU); mean over the file's lines of this peptide in assay [1] was found to be 57.9; in assay [2], 57.4; in assay [3], 77.3; in assay [4] it was 53.6; in assay [5] it was 0; in assay [6], 22.7. In assay [7], this molecule returned a normalised SPOT signal, Boehringer light units (BLU); mean over the file's lines of this peptide of 10.8.
With TINSRFYPPIPISE [YMR154C 67-80], the normalised SPOT signal, Boehringer light units (BLU); mean over the file's lines of this peptide came to 95.6 in assay [1]; 130 in assay [2]; 76.4 in assay [3]; 86.9 in assay [4]; 6.9 in assay [5]; 304 in assay [6]. Moreover, in assay [7], the normalised SPOT signal, Boehringer light units (BLU); mean over the file's lines of this peptide turned out to be 82.1.
Consider TEFSRPIPPTPSGF [YPL009C 63-76], for which the normalised SPOT signal, Boehringer light units (BLU); mean over the file's lines of this peptide was determined as 40.4 in assay [1]; 34400 in assay [2]; 163 in assay [3]; 86.7 in assay [4]; 0 in assay [5]; 13800 in assay [6]. The normalised SPOT signal, Boehringer light units (BLU); mean over the file's lines of this peptide in assay [7] amounted to 9520.
On to TGKFRYMPFSPAGT [YPR135W 471-484], for which the normalised SPOT signal, Boehringer light units (BLU); mean over the file's lines of this peptide in assay [1] is 463; in assay [2] it was 430; in assay [3], 556; in assay [4] it was 301; in assay [5] it was 103; in assay [6], 607. In addition, the normalised SPOT signal, Boehringer light units (BLU); mean over the file's lines of this peptide in assay [7] was found to be 148.
With TDLGKDIPFFPSSE [YDR443C 541-554], the normalised SPOT signal, Boehringer light units (BLU); mean over the file's lines of this peptide in assay [1] was 0; in assay [2], 59.3; in assay [3] it was 146; in assay [4], 48.6; in assay [5], 15.6; in assay [6], 9.5. The same molecule returned a normalised SPOT signal, Boehringer light units (BLU); mean over the file's lines of this peptide in assay [7] of 13.5.
Take TEIYKLEPREPQVD [YEL031W 1078-1091]: the normalised SPOT signal, Boehringer light units (BLU); mean over the file's lines of this peptide in assay [1] turned out to be 132; in assay [2] it was 98; in assay [3], 29.1; in assay [4], 29; in assay [5], 15.6; in assay [6], 0. This molecule also displayed a normalised SPOT signal, Boehringer light units (BLU); mean over the file's lines of this peptide in assay [7] of 64.7.
Consider TGESRKAPLIPLLK [YGR099W 447-460], for which the normalised SPOT signal, Boehringer light units (BLU); mean over the file's lines of this peptide in assay [1] is 8.4; in assay [2], 101; in assay [3] it was 214; in assay [4], 23.8; in assay [5], -0; in assay [6], 162. The same molecule came in with a normalised SPOT signal, Boehringer light units (BLU); mean over the file's lines of this peptide in assay [7] of 5.8.
Take TELLRIIPEMPKDL [YLR032W 80-93]: the normalised SPOT signal, Boehringer light units (BLU); mean over the file's lines of this peptide in assay [1] worked out at 79.9; in assay [2], 22.9; in assay [3] it was 228; in assay [4], 97.2; in assay [5], 15.7; in assay [6], 132. Also, in assay [7], the normalised SPOT signal, Boehringer light units (BLU); mean over the file's lines of this peptide is 19.4.
As for TEVWRKVPMKPIFE [YCR032W 1849-1862], the normalised SPOT signal, Boehringer light units (BLU); mean over the file's lines of this peptide stood at 163 in assay [1]; 523 in assay [2]; 243 in assay [3]; 59.1 in assay [4]; 33.4 in assay [5]; 4970 in assay [6]. The molecule further came in with a normalised SPOT signal, Boehringer light units (BLU); mean over the file's lines of this peptide in assay [7] of 788.
